Measured values published in patent US20220332804A1 (CSL INNOVATION, published 2022).

Tests used:
Assay in all cases: SPR, antibody captured, C2 as analyte;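 further: biacore at 37 °C, anti-C2 mAbs held by immobilised goat anti-human IgG, C2 alanine or serine mutants injected, double-referenced sensorgrams fitted to a 1:1 kinetic or steady-state model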
human C2 R688A = target: T1, human C2 R688A (human, UniProt P06681 21-752)
T1 sequence: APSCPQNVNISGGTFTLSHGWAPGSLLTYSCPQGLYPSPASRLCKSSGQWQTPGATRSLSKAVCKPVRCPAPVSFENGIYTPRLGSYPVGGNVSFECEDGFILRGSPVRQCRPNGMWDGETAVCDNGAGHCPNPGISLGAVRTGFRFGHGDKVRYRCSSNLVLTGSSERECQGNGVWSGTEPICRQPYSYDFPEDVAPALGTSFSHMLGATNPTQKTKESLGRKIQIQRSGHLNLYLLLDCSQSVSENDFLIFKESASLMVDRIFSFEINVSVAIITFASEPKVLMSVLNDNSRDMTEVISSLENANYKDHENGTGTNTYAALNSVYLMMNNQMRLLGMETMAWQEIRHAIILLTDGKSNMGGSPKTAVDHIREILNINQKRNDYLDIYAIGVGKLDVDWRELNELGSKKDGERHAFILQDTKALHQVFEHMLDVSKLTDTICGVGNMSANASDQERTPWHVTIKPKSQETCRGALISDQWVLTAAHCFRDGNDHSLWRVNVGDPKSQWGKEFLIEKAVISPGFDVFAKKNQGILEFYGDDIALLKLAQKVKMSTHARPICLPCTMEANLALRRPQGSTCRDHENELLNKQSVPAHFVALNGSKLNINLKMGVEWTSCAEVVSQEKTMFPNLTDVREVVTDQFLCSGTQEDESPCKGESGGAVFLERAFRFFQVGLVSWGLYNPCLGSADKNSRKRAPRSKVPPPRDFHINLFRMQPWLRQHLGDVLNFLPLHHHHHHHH

human C2 V448A = target: T2, human C2 V448A (human, UniProt P06681 21-752)
T2 sequence: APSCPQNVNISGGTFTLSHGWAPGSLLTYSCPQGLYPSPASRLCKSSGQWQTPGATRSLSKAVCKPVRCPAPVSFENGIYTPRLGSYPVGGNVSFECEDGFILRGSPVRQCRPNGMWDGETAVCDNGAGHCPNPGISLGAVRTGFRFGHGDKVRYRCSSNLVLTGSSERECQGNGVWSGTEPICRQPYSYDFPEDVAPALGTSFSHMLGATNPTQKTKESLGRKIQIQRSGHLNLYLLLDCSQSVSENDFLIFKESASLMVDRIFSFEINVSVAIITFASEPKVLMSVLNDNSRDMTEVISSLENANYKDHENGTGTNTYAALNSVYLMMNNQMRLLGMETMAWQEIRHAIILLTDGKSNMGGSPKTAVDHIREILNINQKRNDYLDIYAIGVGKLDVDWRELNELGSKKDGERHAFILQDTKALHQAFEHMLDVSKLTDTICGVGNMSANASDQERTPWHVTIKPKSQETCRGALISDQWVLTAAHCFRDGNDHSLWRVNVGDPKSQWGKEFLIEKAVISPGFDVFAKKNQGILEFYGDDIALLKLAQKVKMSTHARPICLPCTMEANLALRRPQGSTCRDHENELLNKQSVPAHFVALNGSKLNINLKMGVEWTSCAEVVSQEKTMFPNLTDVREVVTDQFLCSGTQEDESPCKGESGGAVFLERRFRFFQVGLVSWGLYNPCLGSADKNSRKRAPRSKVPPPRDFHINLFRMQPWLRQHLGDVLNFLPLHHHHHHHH

human C2 H435A = target: T3, human C2 H435A (human, UniProt P06681 21-752)
T3 sequence: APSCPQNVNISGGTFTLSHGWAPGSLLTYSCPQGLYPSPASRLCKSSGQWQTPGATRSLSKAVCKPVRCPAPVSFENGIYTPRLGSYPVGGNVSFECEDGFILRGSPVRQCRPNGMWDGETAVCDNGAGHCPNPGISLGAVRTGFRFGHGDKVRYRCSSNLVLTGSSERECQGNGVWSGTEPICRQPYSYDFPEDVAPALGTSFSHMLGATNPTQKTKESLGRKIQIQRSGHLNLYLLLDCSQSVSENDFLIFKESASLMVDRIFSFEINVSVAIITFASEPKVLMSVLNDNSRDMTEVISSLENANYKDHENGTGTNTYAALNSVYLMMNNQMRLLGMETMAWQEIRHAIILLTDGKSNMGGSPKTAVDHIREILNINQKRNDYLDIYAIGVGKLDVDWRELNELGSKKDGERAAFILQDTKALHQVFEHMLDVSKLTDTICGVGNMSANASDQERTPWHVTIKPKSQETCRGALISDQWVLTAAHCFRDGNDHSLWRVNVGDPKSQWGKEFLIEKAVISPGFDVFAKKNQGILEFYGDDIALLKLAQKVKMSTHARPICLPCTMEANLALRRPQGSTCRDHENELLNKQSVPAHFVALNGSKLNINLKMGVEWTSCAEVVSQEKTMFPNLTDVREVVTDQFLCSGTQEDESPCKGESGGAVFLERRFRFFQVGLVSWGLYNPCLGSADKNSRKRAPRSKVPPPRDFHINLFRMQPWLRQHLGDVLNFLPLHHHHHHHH

human C2 K415A = target: T4, human C2 K415A (human, UniProt P06681 21-752)
T4 sequence: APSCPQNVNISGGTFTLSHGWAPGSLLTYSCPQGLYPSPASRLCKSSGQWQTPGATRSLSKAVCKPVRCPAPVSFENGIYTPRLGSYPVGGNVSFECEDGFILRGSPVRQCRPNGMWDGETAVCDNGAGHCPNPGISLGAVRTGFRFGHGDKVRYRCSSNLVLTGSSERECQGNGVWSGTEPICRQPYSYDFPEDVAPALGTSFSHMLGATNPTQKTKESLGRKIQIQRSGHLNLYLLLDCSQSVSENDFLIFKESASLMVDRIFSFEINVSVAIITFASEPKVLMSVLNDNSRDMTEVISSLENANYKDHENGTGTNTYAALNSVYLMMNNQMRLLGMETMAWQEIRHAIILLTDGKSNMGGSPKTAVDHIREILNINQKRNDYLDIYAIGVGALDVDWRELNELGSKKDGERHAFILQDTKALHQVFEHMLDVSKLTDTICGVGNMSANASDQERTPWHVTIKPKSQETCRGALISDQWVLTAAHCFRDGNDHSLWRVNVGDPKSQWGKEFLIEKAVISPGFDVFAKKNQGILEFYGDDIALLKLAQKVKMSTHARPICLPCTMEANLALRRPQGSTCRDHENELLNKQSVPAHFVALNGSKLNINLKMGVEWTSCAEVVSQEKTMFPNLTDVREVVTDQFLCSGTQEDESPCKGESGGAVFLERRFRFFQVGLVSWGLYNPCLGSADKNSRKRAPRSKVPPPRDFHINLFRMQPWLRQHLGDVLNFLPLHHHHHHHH

B1: RF16-242 (antibody, human IgG4 S228P, lambda, V domains shown)
VH: EVQLLQSGAEVKKPGESLKISCKGSGYSFTSYWIGWVRQMPGKGLEWMGIIYPGDSDTRYSPSFQGQVTISADKSISTAYLQWSSLKASDTAMYYCARRGHYGDYFDYWGQGTLVTVSS
VL: SYELTQPPSVSVSPGQTARITCSGDALPKKYAYWYHQKSGQAPVLVIYEDRRRPSEIPERFSGSSSGTMATLTITGAQVEDEGVYFCYSRDRAGNQRVFGGGTQLTVLG
notes: pH-dependent anti-C2 antibody from a phage display library
Kd (human C2 R688A): 17.3 nM
Kd (human C2 V448A): 5 nM
Kd (human C2 H435A): 62.5 nM
Kd (human C2 K415A): 4.1 nM
